From patent publication US20190387724A1 come the findings set out here.

This assay deals with human/mouse chimeric PD-1 protein (humanized PD-1 of B-hPD-1 mice) (human/mouse chimeric). Briefly: flow cytometry on T lymphocytes (CD3+) of F1 generation B-hPD-1 mice.
Chain of human/mouse chimeric PD-1 protein (humanized PD-1 of B-hPD-1 mice) (human/mouse chimeric) (chain, as listed by the source mutant limits assumed): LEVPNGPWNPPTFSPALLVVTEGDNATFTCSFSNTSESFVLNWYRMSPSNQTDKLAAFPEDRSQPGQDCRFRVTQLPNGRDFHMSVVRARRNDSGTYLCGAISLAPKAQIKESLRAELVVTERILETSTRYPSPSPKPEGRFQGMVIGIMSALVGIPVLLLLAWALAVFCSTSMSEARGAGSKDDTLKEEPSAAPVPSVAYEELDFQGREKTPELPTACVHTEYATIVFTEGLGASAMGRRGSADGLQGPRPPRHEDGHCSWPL

For “anti-human PD-1 antibody hPD-1 FITC (Biolegend, article number 329904)”, the percent of double-positive cells (anti-human PD-1 and anti-mouse CD3) worked out at 92%.
